According to article PMC5423124:

Molecular target: Schistosoma japonicum glutathione-S-transferase with mPyTK at position 52 (GST-E52mPyTK) (Schistosoma japonicum) [GST: P08515]
Assay: cross-linking

Question: With “Schistosoma japonicum glutathione-S-transferase with mPyTK at position 52 (GST-E52mPyTK) (from UniProt P08515 2-218) (enzyme)” as the substance, how does the photo-cross-linking yield of the covalent dimer read?
Answer: The photo-cross-linking yield of the covalent dimer was 53%.
